For one data set, the target named is FXR:RXRa (Homo sapiens, UniProt Q96RI1;P19793 full;full). Description: no ligand; PBM; 270 nM : 90 nM RXRa; PBS pH 7.4, 2% milk, 0.02% Triton X-100, 1 mM DTT, BSA, 0.4 mg/ml salmon testes DNA. To be noted: tags: His kept;His cleaved; copies: 1;1; label: surface-attached array probe. A digest of the protocol: (§1)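 Binding z-scores were set against random background probes. The data came from custom Agilent 4×180K protein-binding microarrays carrying double-stranded probes with 34-nt variable regions, incubated 1 h with ligand-free nuclear receptor dimers. Partner-specific antibodies detected binding, and scanned fluorescence was regression-normalized.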

The target of the next data set is PXR:RXRa (Homo sapiens, UniProt O75469;P19793 full;full). Described as above. The note with it: tags: His kept;His cleaved; copies: 1;1; label: surface-attached array probe. A digest of the protocol: as §1
The next data set has as its target RARg:RXRa (Homo sapiens, UniProt P13631;P19793 full;full). The data set is described as above. To be noted: tags: His kept;His cleaved; copies: 1;1; label: surface-attached array probe. A digest of the protocol:
as §1

The next data set deals with RXRa (Homo sapiens, UniProt P19793). Description: no ligand; PBM; 180 nM; PBS pH 7.4, 2% milk, 0.02% Triton X-100, 1 mM DTT, BSA, 0.4 mg/ml salmon testes DNA. To be noted: tags: His cleaved; chain copies: 2; label: surface-attached array probe.
The target of a further data set is RARb:RXRa (Homo sapiens, UniProt P10826;P19793 full;full). Description: no ligand; PBM; 270 nM : 90 nM RXRa; PBS pH 7.4, 2% milk, 0.02% Triton X-100, 1 mM DTT, BSA, 0.4 mg/ml salmon testes DNA. To be noted: tags: His kept;His cleaved; copies: 1;1; label: surface-attached array probe. A digest of the protocol:
as §1

Chain of RARg:RXRa (P13631 whole entry, chain 1 of 2): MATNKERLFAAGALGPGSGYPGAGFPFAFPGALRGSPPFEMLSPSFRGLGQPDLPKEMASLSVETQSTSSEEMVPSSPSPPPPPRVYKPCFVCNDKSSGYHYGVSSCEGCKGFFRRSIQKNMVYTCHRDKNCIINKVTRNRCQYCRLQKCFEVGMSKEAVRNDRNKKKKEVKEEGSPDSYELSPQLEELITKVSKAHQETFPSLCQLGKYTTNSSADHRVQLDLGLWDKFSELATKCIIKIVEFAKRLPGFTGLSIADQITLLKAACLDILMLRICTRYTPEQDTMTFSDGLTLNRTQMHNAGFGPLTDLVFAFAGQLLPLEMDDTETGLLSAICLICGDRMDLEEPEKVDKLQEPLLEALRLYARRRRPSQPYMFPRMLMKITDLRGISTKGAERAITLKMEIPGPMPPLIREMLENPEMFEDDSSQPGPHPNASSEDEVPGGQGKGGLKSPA
Chain of RARg:RXRa (P19793 whole entry, chain 2 of 2): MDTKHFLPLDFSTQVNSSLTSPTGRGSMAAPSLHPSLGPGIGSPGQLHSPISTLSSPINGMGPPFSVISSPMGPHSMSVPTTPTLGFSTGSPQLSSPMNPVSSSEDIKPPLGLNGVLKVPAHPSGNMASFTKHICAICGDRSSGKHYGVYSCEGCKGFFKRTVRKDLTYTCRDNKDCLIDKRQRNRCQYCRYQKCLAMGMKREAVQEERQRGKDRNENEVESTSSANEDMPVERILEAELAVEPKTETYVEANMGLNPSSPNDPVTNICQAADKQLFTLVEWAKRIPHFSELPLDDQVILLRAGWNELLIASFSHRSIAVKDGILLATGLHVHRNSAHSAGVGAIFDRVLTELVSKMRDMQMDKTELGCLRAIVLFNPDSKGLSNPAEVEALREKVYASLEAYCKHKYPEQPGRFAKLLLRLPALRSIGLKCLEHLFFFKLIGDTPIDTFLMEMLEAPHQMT
Chain of PXR:RXRa (O75469 whole entry, chain 1 of 2): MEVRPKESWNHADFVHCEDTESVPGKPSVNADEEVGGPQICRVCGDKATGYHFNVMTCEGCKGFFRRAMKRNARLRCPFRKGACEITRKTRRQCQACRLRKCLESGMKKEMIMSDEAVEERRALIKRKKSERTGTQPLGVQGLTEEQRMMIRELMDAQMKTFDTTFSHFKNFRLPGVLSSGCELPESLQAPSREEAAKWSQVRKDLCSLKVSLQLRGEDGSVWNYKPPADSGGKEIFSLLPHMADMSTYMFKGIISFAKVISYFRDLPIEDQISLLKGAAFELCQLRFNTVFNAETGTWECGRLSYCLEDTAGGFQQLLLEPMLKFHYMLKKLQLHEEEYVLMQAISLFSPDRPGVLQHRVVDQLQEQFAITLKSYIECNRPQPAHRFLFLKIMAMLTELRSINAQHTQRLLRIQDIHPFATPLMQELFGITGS
Chain of PXR:RXRa (P19793 whole entry, chain 2 of 2): as the sequence (P19793 whole entry, chain 2 of 2) above
Chain of RARb:RXRa (P10826 whole entry, chain 1 of 2): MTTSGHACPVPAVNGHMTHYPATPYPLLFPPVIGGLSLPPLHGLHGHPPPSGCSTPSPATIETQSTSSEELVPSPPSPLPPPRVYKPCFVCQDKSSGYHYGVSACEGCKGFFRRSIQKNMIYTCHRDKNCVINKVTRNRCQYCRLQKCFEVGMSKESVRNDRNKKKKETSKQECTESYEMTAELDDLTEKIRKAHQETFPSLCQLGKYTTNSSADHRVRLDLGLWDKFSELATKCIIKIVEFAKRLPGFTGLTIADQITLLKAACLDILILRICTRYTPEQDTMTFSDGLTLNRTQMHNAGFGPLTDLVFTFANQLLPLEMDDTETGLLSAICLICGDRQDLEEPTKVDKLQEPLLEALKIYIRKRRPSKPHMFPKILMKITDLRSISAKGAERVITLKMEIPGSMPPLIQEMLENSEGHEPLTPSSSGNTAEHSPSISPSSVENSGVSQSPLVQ
Chain of RARb:RXRa (P19793 whole entry, chain 2 of 2): as the sequence (P19793 whole entry, chain 2 of 2) above
Chain of RXRa (P19793 whole entry): as the sequence (P19793 whole entry, chain 2 of 2) above
Chain of FXR:RXRa (Q96RI1 whole entry, chain 1 of 2): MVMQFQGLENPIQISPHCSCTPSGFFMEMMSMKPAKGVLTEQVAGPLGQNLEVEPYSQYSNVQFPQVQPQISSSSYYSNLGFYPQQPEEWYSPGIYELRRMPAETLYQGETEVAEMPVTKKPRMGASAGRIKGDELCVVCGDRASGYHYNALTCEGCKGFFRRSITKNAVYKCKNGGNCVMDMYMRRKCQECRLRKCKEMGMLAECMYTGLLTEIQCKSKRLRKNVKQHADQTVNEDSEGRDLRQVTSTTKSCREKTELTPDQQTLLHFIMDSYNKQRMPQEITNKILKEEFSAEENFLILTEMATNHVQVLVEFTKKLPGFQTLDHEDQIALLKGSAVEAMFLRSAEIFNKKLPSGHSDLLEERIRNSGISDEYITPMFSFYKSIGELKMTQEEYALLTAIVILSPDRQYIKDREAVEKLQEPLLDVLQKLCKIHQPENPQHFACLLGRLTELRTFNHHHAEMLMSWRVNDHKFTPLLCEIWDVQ
Chain of FXR:RXRa (P19793 whole entry, chain 2 of 2): as the sequence (P19793 whole entry, chain 2 of 2) above

B1: NRC3_wobSeed89_DR3_G19A_o1 (dsDNA)
DNA 1: GCCTATGTAGGTTAAGGGAGTCATTCAGTTTGAAAGGCGATTGACAGCGTAGAATGAAGG
DNA 2: CCTTCATTCTACGCTGTCAATCGCCTTTCAAACTGAATGACTCCCTTAACCTACATAGGC
Regarding B1, the binding signal with FXR:RXRa is 0.48 PBM z-score against 500 random probes; in the data set with PXR:RXRa it was 0.45 PBM z-score against 500 random probes; with RARg:RXRa, 0.49 PBM z-score against 500 random probes.

B2: NRC3_random_hg19_432_o1 (dsDNA)
DNA 1: GCATGTCAATGGTAGTTTGATGGGAATAGTATTGAGGCGATTGACAGCGTAGAATGAAGG
DNA 2: CCTTCATTCTACGCTGTCAATCGCCTCAATACTATTCCCATCAAACTACCATTGACATGC
B2: the binding signal with RXRa is 0.02 PBM z-score against 500 random probes; with PXR:RXRa it was -0.12 PBM z-score against 500 random probes.

B3: NRC3_wobSeed84_DR3_T8G_o1 (dsDNA)
DNA 1: GCCCGACGGGGGCAGAAAGGTTACCATACCATCCGGGCGATTGACAGCGTAGAATGAAGG
DNA 2: CCTTCATTCTACGCTGTCAATCGCCCGGATGGTATGGTAACCTTTCTGCCCCCGTCGGGC
Turning to B3, the values for the binding signal in the data set with RARb:RXRa and with PXR:RXRa were 3.11 PBM z-score against 500 random probes and 3.49 PBM z-score against 500 random probes, respectively.

B4: NRC3_random_hg19_9_o1 (dsDNA)
DNA 1: GCAGGACTCCTCGTGAAGAGCAGGTGGGAGCGAGTCGCGATTGACAGCGTAGAATGAAGG
DNA 2: CCTTCATTCTACGCTGTCAATCGCGACTCGCTCCCACCTGCTCTTCACGAGGAGTCCTGC
As for B4, the binding signal with PXR:RXRa is -0.76 PBM z-score against 500 random probes; in the data set with RARg:RXRa, -0.88 PBM z-score against 500 random probes.

B5: NRC3_wobSeed137_DR5_C18G_o1 (dsDNA)
DNA 1: GCATATGTAGGTTACATGCGGGTCATTCAGGCTATGGCGATTGACAGCGTAGAATGAAGG
DNA 2: CCTTCATTCTACGCTGTCAATCGCCATAGCCTGAATGACCCGCATGTAACCTACATATGC
For the molecule B5, the binding signal with PXR:RXRa was 3.01 PBM z-score against 500 random probes; with RARg:RXRa it was 3.89 PBM z-score against 500 random probes.

B6: NRC3_random_hg19_340_o1 (dsDNA)
DNA 1: GCGCCTTGTCCTTCTGCAGCTGCTGGTGCAGCCCAGGCGATTGACAGCGTAGAATGAAGG
DNA 2: CCTTCATTCTACGCTGTCAATCGCCTGGGCTGCACCAGCAGCTGCAGAAGGACAAGGCGC
Take B6: the binding signal with PXR:RXRa is -0.91 PBM z-score against 500 random probes; with RARg:RXRa, -0.68 PBM z-score against 500 random probes.

B7: NRC3_random_hg19_219_o1 (dsDNA)
DNA 1: GCTATAGCTCACAACCTCATACCAGGAAGGGCTCAGGCGATTGACAGCGTAGAATGAAGG
DNA 2: CCTTCATTCTACGCTGTCAATCGCCTGAGCCCTTCCTGGTATGAGGTTGTGAGCTATAGC
On to B7, for which the binding signal is -0.28 PBM z-score against 500 random probes with RARb:RXRa and -0.27 PBM z-score against 500 random probes with PXR:RXRa.

B8: NRC3_random_hg19_237_o1 (dsDNA)
DNA 1: GCTGCAGAGAGGCCACCAGCCAGCCCAGACCCATGCGCGATTGACAGCGTAGAATGAAGG
DNA 2: CCTTCATTCTACGCTGTCAATCGCGCATGGGTCTGGGCTGGCTGGTGGCCTCTCTGCAGC
B8: the binding signal with RXRa is 0.12 PBM z-score against 500 random probes; with PXR:RXRa, -0.57 PBM z-score against 500 random probes.

B9: NRC3_random_hg19_134_o1 (dsDNA)
DNA 1: GCAGCTCCACTTCATGCCAGGCCTGGGCTAGAGGCTGCGATTGACAGCGTAGAATGAAGG
DNA 2: CCTTCATTCTACGCTGTCAATCGCAGCCTCTAGCCCAGGCCTGGCATGAAGTGGAGCTGC
In the case of B9, the binding signal with FXR:RXRa is -0.54 PBM z-score against 500 random probes; with PXR:RXRa, -0.78 PBM z-score against 500 random probes.

B10: NRC3_random_hg19_401_o1 (dsDNA)
DNA 1: GCTCTCCATCTTGAGTACCAGCCCTGTTCTTCCAGTGCGATTGACAGCGTAGAATGAAGG
DNA 2: CCTTCATTCTACGCTGTCAATCGCACTGGAAGAACAGGGCTGGTACTCAAGATGGAGAGC
Consider B10, for which the binding signal was 0.41 PBM z-score against 500 random probes with PXR:RXRa and -0.32 PBM z-score against 500 random probes with RARg:RXRa.

B11: NRC3_wobSeed85_DR3_C13A_o1 (dsDNA)
DNA 1: GCCGTCCAAGGTAAGAGAGGTCAGTGAATGCCGAGTGCGATTGACAGCGTAGAATGAAGG
DNA 2: CCTTCATTCTACGCTGTCAATCGCACTCGGCATTCACTGACCTCTCTTACCTTGGACGGC
On to B11, for which the figures for the binding signal in the data set with RARb:RXRa and with PXR:RXRa were 3.07 PBM z-score against 500 random probes and 3.25 PBM z-score against 500 random probes, respectively.

For the origin of these results see paper PMC6555819, “Comprehensive study of nuclear receptor DNA binding provides a revised framework for understanding receptor specificity”.
